# Test results reported in article PMC10901488 (Chemical Science, 2024).
# Tests used:
# Solubilization test = type: physicochemical; conditions: model peptides before tagging, or product after reaction with Mal-(EK)3
# [1] = due to its hydrophobicity; cited from earlier work
Substance,solubility (in words) (Solubilization test),solubility [1]
"1: C-terminal segment of IL-2 (residue 105–133) (CEYADETATIVEFLNRWITFCQSIISTLT; UniProt P60568 125-153, looked up, fragment) [compound 1]",poor solubility,–
insulin A chain: insulin A chain,–,poor solubility
